Data taken from PMC12525004, “Bacillus subtilis DinG 3′⟶5′ Exo(ribo)nuclease: A Helpmate to Mitigate Replication Stress” (International Journal of Molecular Sciences, 2025).
Positions count from the first letter of the chain named.

What was measured:
Conditions in all cases: protein: recombinant; tags: none stated (pET3a, untagged); label: 5'-32P; single strand
DinG K290A = target: T1, DinG K290A (Bacillus subtilis, UniProt P54394 1-931, K290A); assay: EMSA; 2 mM EDTA, no metal; Kapp; text names lssDNA38, Methods and Fig S4 legend give lssDNA45; EMSA, buffer D (composition not in material; 3 mM MgCl2, or 2 mM EDTA instead), 0.5 nM DNA, 37 °C, 10 min (text: 5 min), 15% native PAGE in TBE 1X; pH and salt
T1 sequence: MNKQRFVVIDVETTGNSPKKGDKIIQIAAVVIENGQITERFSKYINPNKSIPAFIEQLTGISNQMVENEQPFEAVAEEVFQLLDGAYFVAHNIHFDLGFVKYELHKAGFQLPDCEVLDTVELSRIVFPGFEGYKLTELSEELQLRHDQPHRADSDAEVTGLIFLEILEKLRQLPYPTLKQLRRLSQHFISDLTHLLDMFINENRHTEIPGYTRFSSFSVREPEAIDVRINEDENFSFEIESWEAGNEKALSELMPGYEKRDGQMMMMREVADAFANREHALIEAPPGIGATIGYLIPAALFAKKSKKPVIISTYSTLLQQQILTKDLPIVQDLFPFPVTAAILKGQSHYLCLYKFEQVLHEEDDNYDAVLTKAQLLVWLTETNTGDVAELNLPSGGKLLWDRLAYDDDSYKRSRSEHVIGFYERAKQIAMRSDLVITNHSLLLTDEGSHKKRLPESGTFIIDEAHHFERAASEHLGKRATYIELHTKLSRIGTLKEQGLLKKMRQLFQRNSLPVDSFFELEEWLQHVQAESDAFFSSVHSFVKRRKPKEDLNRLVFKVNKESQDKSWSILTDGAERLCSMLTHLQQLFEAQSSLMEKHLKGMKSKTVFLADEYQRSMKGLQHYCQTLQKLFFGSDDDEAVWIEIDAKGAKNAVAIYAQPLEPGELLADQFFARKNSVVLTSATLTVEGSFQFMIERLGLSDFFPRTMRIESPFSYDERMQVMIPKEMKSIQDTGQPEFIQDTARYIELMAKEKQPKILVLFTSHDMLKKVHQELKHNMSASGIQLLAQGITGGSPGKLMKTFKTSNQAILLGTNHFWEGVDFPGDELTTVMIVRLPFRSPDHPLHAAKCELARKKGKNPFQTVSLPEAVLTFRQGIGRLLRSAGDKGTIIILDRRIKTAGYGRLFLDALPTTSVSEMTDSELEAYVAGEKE

DinG D10A E12A [1] = target: T2, DinG D10A E12A (Bacillus subtilis, UniProt P54394 1-931, D10A;E12A); assay: EMSA; 3 mM Mg2+; C1, C2 and well complexes; EMSA, buffer D (composition not in material; 3 mM MgCl2, or 2 mM EDTA instead), 0.5 nM DNA, 37 °C, 10 min (text: 5 min), 15% native PAGE in TBE 1X; pH and salt
T2 sequence: T1 sequence with D10A, E12A, A290K

DinG D10A E12A [2] = target: T2, DinG D10A E12A; assay: EMSA; 2 mM EDTA, no metal; text names lssDNA38, Methods and Fig S4 legend give lssDNA45; EMSA, buffer D (composition not in material; 3 mM MgCl2, or 2 mM EDTA instead), 0.5 nM DNA, 37 °C, 10 min (text: 5 min), 15% native PAGE in TBE 1X; pH and salt

With GTACGTATTCAAGATACCTCGTACTCTGTACTGACTCGGATCCTA (ssDNA, biotin-T at position 44 (second from 3' end)) [3'-Biotin gamma32P-lssDNA45] the “apparent K (half saturation)” value (DinG K290A) was ~1.1 nM, the binding signal (DinG D10A E12A [1]) was ~37 fold lower affinity than wt DinG and the binding signal (DinG D10A E12A [2]) was ~2 fold lower affinity than its Mg2+-bound state.
